# Source: the nanobody polyreactivity screen of Harvey et al. (2022)
# Test: yeast display, Sf9 membrane polyspecificity reagent, FACS + sequencing; frameworks hold sequencing errors
# Outline: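 Nanobodies came from a synthetic yeast display library in Saccharomyces cerevisiae BJ5465, induced with galactose for 36–48 hours and stained for 1 hour at 4 °C with 10% biotinylated, detergent-solubilized Sf9 membrane reagent. Cells were enriched on streptavidin microbeads and then FACS-sorted, with low and high (top ~1%) gates set on anti-HA fluorescence for expression and streptavidin fluorescence for reagent binding. Each polyreactivity label reflects the gate a clone came from. Genes were amplified by colony PCR, sequenced by MiSeq 2 × 250 and filtered by CDR length.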
row,Sequence,polyreactivity (PSR sort gate)
1,QVQLVESGGGLVQAGGSLRLSCAASGFIFYTYAMGWYRQAPGKERELVAAITWDGGSTYYADSVKGRFTISRDTAKNTVYLQMNSLKPEDTAVYYCNAEYGYIRGNYGYWGQGTQVTVSS,low polyreactivity
2,QVQLVESGGGLVQAGGSLRLSCAASGFTFYSNAMGWYRQAPGKERELVAAITGRGGRTYYADSVKGRFTISRDNAKNTVYLQMNSLKPEDTAVYYCAAVYHVSTWGGRYYFRQGYDYWGQGTQVTVSS,high polyreactivity
3,QVQLVESGGGLVQAGGSLRLSCAASGLTFKKYTIGWYRQAPGKETQLVAVITSGGSTYYADSVKGRFTISRDNAKNTVYLQMNSVKPEDTAVYYGAVKYPELRSWGNYYWGQGTQVTVSS,high polyreactivity
4,QVQLVESGGGFVQAGGSLGLSCAASGSIFFVYAMGWYRQAPGKERELVADSTNGGDRNYADSVKGRFTISREHAKNTVYLQMHSLKPEDTAVYDCNARYYGYRSWLEAYNRGDYWGQATQVTVSS,high polyreactivity
5,QVQLVESGGGLVQAGGSLRLSCAASGRTFAPYAMGWYRQAPGKERELVAAISWSGGSTYYADSVKGRFTISRDNAKNSVYLQMNSLKPEDTAVYYCAVVVDYDADRYWGYDYWGQGTQVTVSS,high polyreactivity
6,QVQLVESGGGLVQAGGSLRLSCAASGLTFKYYTMGWYRQAPGKERELVAAISRSGTITYYADSVKGRFTISRDNAKNTVYLQMNSLKPEDTAVYYSNKASTYPSYDYWGHGTQVTVSS,high polyreactivity
7,QVQLVESGGGLVQAGGSLRLSCAASGFTFGGNTMGWYRQAPGKERELVAAITQGGSSTYYADSVKGRFTISRDNAKNTVYLQMNSLKPEDTAVYYCNRGSPFGGLRPYDYWGQGTQVTVSS,high polyreactivity
8,QVQLVESGGGLVQAGGSLRLSCAASGYTFGGYAMGWYRQAPGKERELVAAISGSGVRTYYADSVKGRFTISRDNAKNTVYLQMNSLKPEDTAVYYCAKRVRYPGDRYYYWGQGTQVTVSS,high polyreactivity
9,QVQLVESGGGLVQAGGSLRLSCAASGRTFYANDMGWYRQAPGKERELVARITSGGSTYYADSVKGRFTISRDNAKNTVYLQMNSLKPEDTAVYYCAAVTRRFSYRYNYWGQGTQVTVSS,high polyreactivity
10,QVQLVESGGGLVQAGGSLRLSCAASGSTYYRYTMGSYRQAPGKERELLAAITSGGGTDYADSVKGRFTISRDNAKNTVYLQMNSLKPEDTAVYYCAAEGSWYSYPDYDYWGQGTQVTVSS,low polyreactivity
11,QVQLVESGGGLVQAGGSLRLSCAASGRTFYSYAMGWYRQAPGKEREWVATITNGDTTNYADSVKGRFTISRDNAKNTVYLQMNSLKPEDTAVYYCAKDISPGYDEYDYWGQGTQVTVSS,low polyreactivity
12,QVQLVESGGGLVQAGGSLRLSCAASGITFASYAMGWYRQAPGKERELVAVITRSTGRTYYADSVKGRFTISRDNAKNTVYLQMNSLKPEDTAVYYCAAGYITWYDYWGQGTQVTVSS,high polyreactivity
13,QVQLVDSGGGLVQAGGSLRLSCAASGSTFSVYAMVWYRQAPGKERELVAAISKRGTSTYYADSLKGRFTISRDYAKNTLYLQKNSLKPEDTAVYYCAAEAYRPSPFYYWGQGTQVTFSS,high polyreactivity
14,QVQLVESGGGLVQAGGSLRLSCAASGSTFTFYAMGWYRQAPGKERELVATISSSGGSTYYADSVKGRFTFSRDNAKKTVYLQMNSLKPEDTAVYYCAADPSIVDGEYGYWGQGTQVTVSS,low polyreactivity
15,QVKLVESGGGLVMAGGSLRLSCAASGRTFWIYAMGRYRQAPGKERELVAAISQSSSITYYADSVKRRFTFSRDNAKNTVYLQMNSLKPEDTEGYYCNSDVLRYQGSWLEYWGQGTQVTVSS,low polyreactivity
16,QVQLVESGGGLVQAGGSLRLSCAASGSIFTSYAMGWYRQAPGKERELVAGIDWSGGGTYYADSVKGRFTISRDNAKNTVYLQMNSLKPEDTAVYYCNADGPYTRYGPVDYWGQGTQVTVSS,low polyreactivity
17,QVQLVESGGGLVQAGGSLSLSCAASGITFGLYAMGWYRQATGKERELVAAITSGDRTYYADSVKGRFTISRDNAKNTVYLQMISLTPEDTAVNYCNAEAWWVYYYYGTYLAGSYYWGQGTQVTVSS,high polyreactivity
18,QVQLVESGGGLVQAGGSLRLSCADSGRIFGPYAMGWYRKAPGKERELVAAIRASSSTYYADSVKGRFTISRDNAKNTVYLQMNSLKPEDTAVYYCAADWYYGYAWKYGYWGQGTQVTVSS,low polyreactivity
19,QVQLVESGGGLVQAGGSLRLSCAASGRTLVDYGMVWYRQAPGKERELVAVITSGGSTYYADSVKGRFTISRDNAKNTVYLQLNSLIQEDTAVYYCAADNCYRGYHSPYDYWGQGTQVTVSS,low polyreactivity
20,QVQLVESGGGLVQAGGSLRLICAASGVSNAKGWYRQAPGKERELVAAISRSGGSTYYADSVKGRFTISRDNAKNTVYIQMNSLKPEDTAVYYCAAGYRTRGLYSRLDWGQGTQVTVSS,high polyreactivity
21,QVQLVESGGGLVQAGGSLRLSCSASGFIFLDYAMGLYRQAPGKERELVAAISSRGARTYYADSVKGRFTISRDNAKNTVYLQMNSLKPEDTAVYYCAARGPHDRYGYWGQGNQVTVSS,high polyreactivity

row,Sequence,polyreactivity (PSR sort gate)
1,QVQLVESGGGLVQAGGSLRLSCAASGRIFQSNAMGWNIQAPGKERELVAASNSGDSTYYADSVKGRFTISRDNAINTVYLQMNSLQPEDTAVYYSAADAVYQYYSYYYWGQGTQVTVSS,low polyreactivity
2,QVQLVESGGGLVQAGGSLRLSCAASGSTFPLYAMGWYRQAPGKEREFVAAIRWIGGSTYYADSVKGRFTISRDNAKNTVYLQMNSLKPEDTAVYYCAADYVVSAFDYWGQGTQVTVSS,low polyreactivity
3,QVQLVDSGGGLVQAGGSLRLIFAASGITQPYYAMGWYRQAPGKERELVAGISSRGGSTYYADSVKGRFTISRDNAKNTVYLQMNSLIPEDTAVYYCAAKVASTRLGPAYGYWGQGTQVTLSS,high polyreactivity
4,QVQLVESGGGLVQAGGSLRLSCAASGRIFSQYAMGWYRQAPGKERELVAAISSRGGRTYYADSVKGRFTISRDNAKNTVYLQMNSLKPEDTAVYYCAAVIRSRYSYYEYDYWGQGTQVTVSS,high polyreactivity
5,QVQLVESGGALVQAGGSLRLSCAASGRTFNYYAKGWSRQAPGKERELVAAITNGVSTKYADSVKGRFTISRDNAKNTVYLQMNSLKPEDTAVYYCAAQRLYGYRLYNYWGQGTQVTVSS,high polyreactivity
6,QVQLVESGGGLVQAGGSLRLSCAASGSTFFVYTMGWYRQAPGKERELVAAISGSGGSTSYADSVKGRFTISRDNAKNTVYLQMNSLKPEDTAVYYCAARRHVYLRGSTFEFNYWGQGTQVTVSS,high polyreactivity
7,QVQLVESGGGLVQAGGSLRLSCAASGRTFTKNAMGWYRQAPGKERELVAAISISGGSTYYADSVKGRFTISRDNAKNTVYLQMYSLKPEDTAVYYCAADVVTYLSYTLDYWGQGTQVTVSS,low polyreactivity
8,QVQLVESGGGLVQAGGSLRLSCAASGFIFYRYAMGWYRQAPGKERELVATIRYSGGSTYYADSVKGRFTISRDNAKNTVYLQMNSLKPEDTAVYYCNARRRHPSVSRPPYDYWGQGTQVTVSS,high polyreactivity
9,QVHLVESGGGLVQAGGSLRLSSAAYGRTFKYNAMGWYRQAPGKRKELVAAISSGGSTYYADSVKGRFTISRDNAKKTVYFQMNSLKPEDTAVYYCAVRNTKSYWFGYWGQGTQVTVSS,high polyreactivity
10,QVQLVESGGGLVQAGGSLRLSCAASGFTFVYYAMGWYRQAPGKERELVAAISQSGSSTYYADSVKGRFTISRDNPKNTVYLQMNSLKPEDTAVYYCNVYYASRPTYDFGYWGQVTQVTVSS,high polyreactivity
11,QVQLVESGGGLVQAGGSLRLSCAASGFIFTSYAMGWYRQAPGKERELVAAITDGGSTNYADSVKGRFTISRDNAKNTVYLQMNSLKPEDTAVFYCAADGFKTVLPEYDYWGQGTQVTVSS,low polyreactivity
12,QVQLVESGGGIVQAGGSLRLSCAASGFTFARNAMGWSRQAPGNEWELVAAISYRGGSTYYADSVKGRFTISRDNAKNTLYLQMNSLKPQDTAVYYCAAEVVWYVYRRYYYWGQGTQVTVSS,high polyreactivity
13,QVQLVESGGGLVQAGGSLRLSCAASGRIFGVNARGWYRQAPGKERELVATITRGGNTNYADSVKGRFTISRDNAKNTVYLQMNSLKPEDTAVYYCNADRYRTFSRLPYGEYEYWGQGTQVTVSS,low polyreactivity
14,QVQIVESGGGLVQAGGSLRLSCAASGSIFRYYAMAWYRQETGKERELVARISSGVSTNYADSVKGRFTISRDNAKNSVYLQMNSLKPEDTAVYYCNARTGWTGRGRYSLRYDYWGQGTQVTVSS,high polyreactivity
15,QVQLVESGGGLVQAGGSLRLSCAASGSTFKNYAMGWYRQAPGKERELVAAINVSGARTYYADSVKGRFTISRDNAKNTVYLQMNSLKPEDTAVYYCAAYYSGVGYDYWGQGTQVTVSS,high polyreactivity
16,QVQLVESGGGLVQAGGSLRLSCAASGRTFGFNVMGWYRQAPGKERELVAAISRSGGSTYYADSVKGRFTISRDNAKNTVYLQMNRLKPEDTAVYYCNKRYVHRYGYWGPGTQVTVSS,low polyreactivity
17,QVQLVESGGGLVQAGGSLRLSCAASGFIFSRYTMGWYRQAPGKERELVAAITWSGGSTYYADSVKGRFTISRDNAKNTVYLQMNSLKPVDTAVYYCAAARISVVQGDYWGQGTQVTVSS,high polyreactivity
18,QFQLVESGGRLVQPGGSLRLSCAASGGIFYGYAMGWYRKAPGKERELVAAISSTGGRTYYADSVKGRFTISRDNAKNTVYLQMNSLKPEDTAVSYCAAEDFTRQFEYWGQGTQVTVSS,low polyreactivity
19,PVQLVETGGGLVQAGGSLRLSCAASGRTFYRYAMGWYRQAPGKERELVAAITRRVDSTSYADSVKGRFTISRDNAKNTVYLQMNSLKPEDTAVYYCATLVQGSVYGVYGGGYWGQGTQVTVSS,low polyreactivity
20,QVQLVESGGGLVQAGGSLRLSCAASGITIYIYAMGWYRQAPGKERELVAAISDVGSTHYADSVKGRFTISRDNAKNTVYLQMNSLKPEDTAVYYCNADYYWFFVFFDYDYWGQGTQVSVSS,low polyreactivity
